Consider four molecules from patent US20260055182A1 (CIS BIOPHARMA, published 2026).

Assay [1] addresses T1, L1-CAM recombinant protein (His Tag), human (human, UniProt P32004 20-1120).
T1 construct: Bought protein; also called CD171; human L1-CAM; not shown: His tag
Description: SPR (Biacore 8K); L1-CAM immobilised on CM5 chip, antibody as analyte.

Assay [2] addresses T1, L1-CAM recombinant protein (His Tag), …. Description: GCI (Creoptix WAVEdelta); antibody captured on protein A/G, L1-CAM as analyte, 1:1 model.
For assay [3] the target is unchanged. Description: ELISA, human L1-CAM coated at 2 µg/ml. (ELISA stands for enzyme-linked immunosorbent assay.)
The target is the same in assay [4]. Description: SPR (Biacore 8K) as in Example 6, new batch of L1-CAM on the chip. In general terms: SPR reads the build-up and loss of mass on a sensor chip optically.
Description: (§1) In the SPR experiment, antigen is immobilized on sensor chip and solutions containing antibody at various concentrations are flown over the antigen. real time measurement of kinetics parameters is performed, including their on/off rates (ka and kd). Based thereon, binding affinity constant KD is determined.
Assay [5] has the same target. Description: SPR (Biacore 8K); L1-CAM immobilised on CM5 chip, antibody as analyte. The source holds these as a separate data set.
Description: as §1
For assay [6] the target is unchanged. The assay can be described thus: ELISA, human L1-CAM coated at 2 µg/ml; second of two values in the cell; second of two values in the cell.
Assay [7] shares this target. Description: ELISA, human L1-CAM coated at 2 µg/ml; first of two values in the cell; first of two values in the cell.
Assay [8] has the same target. Description: ELISA, human L1-CAM coated at 2 µg/ml; second of two values in the cell.
Assay [9] shares this target. The assay can be described thus: ELISA, human L1-CAM coated at 2 µg/ml; first of two values in the cell.

T1 sequence (P32004 20-1120 limits assumed): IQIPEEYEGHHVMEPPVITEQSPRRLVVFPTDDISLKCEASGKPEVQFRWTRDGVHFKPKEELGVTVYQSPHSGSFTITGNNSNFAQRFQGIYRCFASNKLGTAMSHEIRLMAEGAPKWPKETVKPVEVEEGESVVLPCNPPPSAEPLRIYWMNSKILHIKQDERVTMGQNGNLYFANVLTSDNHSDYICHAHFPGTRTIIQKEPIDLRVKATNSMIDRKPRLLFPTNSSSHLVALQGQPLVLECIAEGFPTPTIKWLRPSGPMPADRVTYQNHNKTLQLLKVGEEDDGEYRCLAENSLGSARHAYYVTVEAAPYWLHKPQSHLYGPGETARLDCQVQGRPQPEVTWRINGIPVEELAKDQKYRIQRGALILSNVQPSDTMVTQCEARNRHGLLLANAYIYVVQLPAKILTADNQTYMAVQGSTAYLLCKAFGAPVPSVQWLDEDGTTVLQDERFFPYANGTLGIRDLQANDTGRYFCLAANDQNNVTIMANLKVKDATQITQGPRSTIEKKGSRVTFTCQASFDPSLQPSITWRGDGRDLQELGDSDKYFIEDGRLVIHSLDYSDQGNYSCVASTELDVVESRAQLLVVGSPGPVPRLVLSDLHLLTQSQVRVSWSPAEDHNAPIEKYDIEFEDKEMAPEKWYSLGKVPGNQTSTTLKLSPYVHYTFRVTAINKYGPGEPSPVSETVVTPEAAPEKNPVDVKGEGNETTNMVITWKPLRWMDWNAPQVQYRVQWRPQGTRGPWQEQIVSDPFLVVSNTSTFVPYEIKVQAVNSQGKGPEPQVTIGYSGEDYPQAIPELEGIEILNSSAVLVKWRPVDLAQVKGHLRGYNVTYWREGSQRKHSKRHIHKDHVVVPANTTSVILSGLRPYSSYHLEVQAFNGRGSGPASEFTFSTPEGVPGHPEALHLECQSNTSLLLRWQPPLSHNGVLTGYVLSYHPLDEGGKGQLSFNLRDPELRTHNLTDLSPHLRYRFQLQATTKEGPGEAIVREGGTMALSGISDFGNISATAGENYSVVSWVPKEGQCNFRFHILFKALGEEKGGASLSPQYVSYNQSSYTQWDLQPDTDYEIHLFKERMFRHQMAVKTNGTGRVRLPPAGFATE

B1: CE7-variant7-AG (antibody, human IgG1, kappa, L234A L235A, N297A)
heavy: QVQLVQSGAEVKKPGASVKVSCKASGYTFTGYWMHWVRQAPGQGLEWIGEINPSNGRTNYNERFQGRVTLTVDKSISTAYMELSRLRSDDTAVYYCARDYYGTSYNFDYWGQGTLVTVSSASTKGPSVFPLAPSSKSTSGGTAALGCLVKDYFPEPVTVSWNSGALTSGVHTFPAVLQSSGLYSLSSVVTVPSSSLGTQTYICNVNHKPSNTKVDKKVEPKSCDKTHTCPPCPAPEAAGGPSVFLFPPKPKDTLMISRTPEVTCVVVDVSHEDPEVKFNWYVDGVEVHNAKTKPREEQYASTYRVVSVLTVLHQDWLNGKEYKCKVSNKALPASIEKTISKAKGQPREPQVYTLPPSREEMTKNQVSLTCLVKGFYPSDIAVEWESNGQPENNYKTTPPVLDSDGSFFLYSKLTVDKSRWQQGNVFSCSVMHEALHNHYTQKSLSLSPGK
light: DIQMTQSPSSLSASVGDRVTITCKANEDINNRLAWYQQKPGKAPKLLISGATNLVTGVPSRFSGSGSGKDYTLTISSLQPEDFATYYCQQYWSTPFTFGQGTKLEIKRTVAAPSVFIFPPSDEQLKSGTASVVCLLNNFYPREAKVQWKVDNALQSGNSQESVTEQDSKDSTYSLSSTLTLSKADYEKHKVYACEVTHQGLSSPVTKSFNRGEC
notes: CE7-1-2-VHB (L234A L235A P331S N297A) + CE7-1-NL1-VLA, aglycosylated human IgG1 kappa; also called CE7-varant7-AG; huCE7 variant 7AG
What is called Kd is a measure of binding affinity in units of concentration. The term koff denotes a measure of how fast the partners let go of each other. One may read the kon as the second-order rate constant of association. By EC50 is commonly meant the concentration needed to bring the measured effect to its halfway point. For B1, in [1], the Kd was below 0.00971 nM, the dissociation rate constant (koff) is below 1e-05 s⁻¹ and the on-rate constant (kon) was found to be 1.03e+06 M⁻¹ s⁻¹. Also, in [2], the Kd was around 4 nM. Moreover, the 50% effective concentration (EC50) in [3] was 0.0258 µg/mL. Also, in assay [4], the dissociation constant Kd was determined as 0.0238 nM, the koff was 3.53e-05 s⁻¹ and the kon came to 1.48e+06 M⁻¹ s⁻¹.

B2: CE7-variant7 (antibody)
heavy: QVQLVQSGAEVKKPGASVKVSCKASGYTFTGYWMHWVRQAPGQGLEWIGEINPSNGRTNYNERFQGRVTLTVDKSISTAYMELSRLRSDDTAVYYCARDYYGTSYNFDYWGQGTLVTVSSASTKGPSVFPLAPSSKSTSGGTAALGCLVKDYFPEPVTVSWNSGALTSGVHTFPAVLQSSGLYSLSSVVTVPSSSLGTQTYICNVNHKPSNTKVDKKVEPKSCDKTHTCPPCPAPEAAGGPSVFLFPPKPKDTLMISRTPEVTCVVVDVSHEDPEVKFNWYVDGVEVHNAKTKPREEQYNSTYRVVSVLTVLHQDWLNGKEYKCKVSNKALPASIEKTISKAKGQPREPQVYTLPPSREEMTKNQVSLTCLVKGFYPSDIAVEWESNGQPENNYKTTPPVLDSDGSFFLYSKLTVDKSRWQQGNVFSCSVMHEALHNHYTQKSLSLSPGK
light: DIQMTQSPSSLSASVGDRVTITCKANEDINNRLAWYQQKPGKAPKLLISGATNLVTGVPSRFSGSGSGKDYTLTISSLQPEDFATYYCQQYWSTPFTFGQGTKLEIKRTVAAPSVFIFPPSDEQLKSGTASVVCLLNNFYPREAKVQWKVDNALQSGNSQESVTEQDSKDSTYSLSSTLTLSKADYEKHKVYACEVTHQGLSSPVTKSFNRGEC
notes: also called CE7-12-VHB-1NL1-VLA; humanized variant 7
In the case of B2, in assay [5], the dissociation constant Kd came out at 0.896 pM, the off-rate constant (koff) came out at 5.51e-07 s⁻¹ and the on-rate (kon) stood at 615000 M⁻¹ s⁻¹. Also, in assay [6], the EC50 was found to be 0.0327 µg/mL. The EC50 in [7] was 9.58 ng/mL.

B3: chimeric cHCE7 (antibody, V domains shown)
VH: QVQLQQPGAELVKPGASVKLSCKASGYTFTGYWMHWVKQRPGHGLEWIGEINPSNGRTNYNERFKSKATLTVDKSSTTAFMQLSGLTSEDSAVYFCARDYYGTSYNFDYWGQGTTLTVSS
VL: DIQMTQSSSSFSVSLGDRVTITCKANEDINNRLAWYQQTPGNSPRLLISGATNLVTGVPSRFSGSGSGKDYTLTITSLQAEDFATYYCQQYWSTPFTFGSGTELEIK
notes: Control antibody; also called chimeric HCE7; CE7 chimeric antibody
Regarding B3, in assay [1], the Kd worked out at 0.0519 nM, the dissociation rate constant (koff) stood at 4.39e-05 s⁻¹ and the on-rate constant (kon) stood at 845000 M⁻¹ s⁻¹. Further, the EC50 in assay [8] came to 0.0232 µg/mL. The concentration giving a half-maximal response (EC50) in [9] was 6.63 ng/mL.

B4: Deglycosylated cHCE7 (antibody, V domains shown)
VH: QVQLQQPGAELVKPGASVKLSCKASGYTFTGYWMHWVKQRPGHGLEWIGEINPSNGRTNYNERFKSKATLTVDKSSTTAFMQLSGLTSEDSAVYFCARDYYGTSYNFDYWGQGTTLTVSS
VL: DIQMTQSSSSFSVSLGDRVTITCKANEDINNRLAWYQQTPGNSPRLLISGATNLVTGVPSRFSGSGSGKDYTLTITSLQAEDFATYYCQQYWSTPFTFGSGTELEIK
modifications: deglycosylated (so in the source); site and method not stated for this sample
notes: also called cHCE7 degly; cHCE7 deglycosylated
For the molecule B4, in assay [1], the Kd was determined as 0.12 nM, the koff was found to be 9.59e-05 s⁻¹ and the kon came out at 806000 M⁻¹ s⁻¹. Also, the Kd in [2] is around 4 nM. For the same molecule, the EC50 in assay [3] is 0.0131 µg/mL.
